B1: Semaphorin-4C (Mus musculus), Q64151 (parent)
chain: MAPHWAVWLLAAGLWGLGIGAEMWWNLVPRKTVSSGELVTVVRRFSQTGIQDFLTLTLTEHSGLLYVGAREALFAFSVEALELQGAISWEAPAEKKIECTQKGKSNQTECFNFIRFLQPYNSSHLYVCGTYAFQPKCTYINMLTFTLDRAEFEDGKGKCPYDPAKGHTGLLVDGELYSATLNNFLGTEPVILRYMGTHHSIKTEYLAFWLNEPHFVGSAFVPESVGSFTGDDDKIYFFFSERAVEYDCYSEQVVARVARVCKGDMGGARTLQKKWTTFLKARLVCSAPDWKVYFNQLKAVHTLRGASWHNTTFFGVFQARWGDMDLSAVCEYQLEQIQQVFEGPYKEYSEQAQKWARYTDPVPSPRPGSCINNWHRDNGYTSSLELPDNTLNFIKKHPLMEDQVKPRLGRPLLVKKNTNFTHVVADRVPGLDGATYTVLFIGTGDGWLLKAVSLGPWIHMVEELQVFDQEPVESLVLSQSKKVLFAGSRSQLVQLSLADCTKYRFCVDCVLARDPYCAWNVNTSRCVATTSGRSGSFLVQHVANLDTSKMCNQYGIKKVRSIPKNITVVSGTDLVLPCHLSSNLAHAHWTFGSQDLPAEQPGSFLYDTGLQALVVMAAQSRHSGPYRCYSEEQGTRLAAESYLVAVVAGSSVTLEARAPLENLGLVWLAVVALGAVCLVLLLLVLSLRRRLREELEKGAKASERTLVYPLELPKEPASPPFRPGPETDEKLWDPVGYYYSDGSLKIVPGHARCQPGGGPPSPPPGIPGQPLPSPTRLHLGGGRNSNANGYVRLQLGGEDRGGSGHPLPELADELRRKLQQRQPLPDSNPEESSV
partner: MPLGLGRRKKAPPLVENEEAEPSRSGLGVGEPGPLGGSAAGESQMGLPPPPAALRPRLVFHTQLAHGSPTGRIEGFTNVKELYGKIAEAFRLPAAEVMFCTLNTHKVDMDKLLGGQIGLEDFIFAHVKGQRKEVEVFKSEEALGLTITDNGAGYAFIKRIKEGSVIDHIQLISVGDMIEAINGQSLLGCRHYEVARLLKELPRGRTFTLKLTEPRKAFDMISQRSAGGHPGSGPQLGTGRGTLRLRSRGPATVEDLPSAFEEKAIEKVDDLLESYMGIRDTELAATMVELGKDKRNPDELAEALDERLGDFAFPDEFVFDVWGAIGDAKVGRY

Variants of: B1
Settings: with gipc1_mouse Gipc1, Q9Z0G0

Variant	effect of a mutation on the interaction
S832D	disrupting interaction
S832A	disrupting interaction
